# Reference: the RNAGym collection of RNA variant scans (doi:10.1093/molbev/msab373)
# B1: Azoarcus group I ribozyme (parent)
# chain: GUGCCUUGCGCCGGGAAACCACGCAAGGGAUGGUGUCAAAUUCGGCGAAACCUAAGCGCCCGCCCGGGCGUAUGGCAACGCCGAGCCAAGCUUCGGCGCCUGCGCCGAUGAAGGUGUAGAGACUAGACGGCACCCACCUAAGGCAAACGCUAUGGUGAAGGCAUAGUCCAGGGAGUGGCGAAAGUCACACAAACCGG
# Variants of: B1
# Assay: reverse-splicing fitness (ratio to wild type); higher = more active; in vitro selection; Mg2+ level not given
# In short: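 An in vitro group I ribozyme library with randomized positions was T7-transcribed and gel-purified. In triplicate, 10 pmol RNA in EPPS pH 7.5 was reacted with 50 pmoles of a 30-nt RNA substrate for 1 h at 37 °C across several added MgCl2 levels (1–48 mM), then stopped with EDTA. Products were reverse transcribed from a substrate-complementary primer, PCR-amplified and sequenced (HiSeq 4000). Fitness is a variant's read proportion after selection over that before, normalised to wild type.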
row,Variant,reverse-splicing fitness
1,C82G A111U C169A U176G,0.00627
2,C82G A111U C169A U176A,0.0152
3,C82G A111U C169A U176C,0.0203
4,C82G A111U A145U C169U,0.0113
5,C82G A120C A145C C150A C169A,0.00726
6,C82G A120C A145C C150A C169G,0.00715
7,C82G A120C A145C C150A C169U,0.00799
8,C82G A120C A145G C150A C169U U176G,0.00589
9,C82G A120C A145G C150A C169U U176C,0.0165
10,C82G A120C A145G C150A C169U U176A,0.0145
11,C82G A120C A145G C150A C169G U176C,0.0256
12,C82G A120C A145G C150A C169G U176G,0.0054
13,C82G A120C A145G C150A C169G U176A,0.0184
14,C82G A111U C169A,0.00938
15,C82G A111U C169G,0.00946
16,C82G A111U C169U,0.0134
17,C82G A111U C150U C169U U176C,0.013
18,C82G A111U C150U C169U U176A,0.014
19,C82G A111U C150U C169U U176G,0.00694
20,C82G A120C A145G C150G C169A U176C,0.0145
21,C82G A120C A145G C150G C169A U176G,0.00912
22,C82G A120C A145G C150G C169A U176A,0.0143
23,C82G A120C A145C C150G C169A U176A,0.0101
24,C82G A120C A145C C150G C169A U176G,0.00496

row,Variant,reverse-splicing fitness
1,C82G A120C A145C C150G C169A U176C,0.00752
2,C82G A111U C150U U176C,0.131
3,C82G A111U C150U U176A,0.0918
4,C82G A111U C150U U176G,0.0348
5,C82G A120C A145C C169G U176G,0.00428
6,C82G A120C A145C C169G U176C,0.0161
7,C82G A120C A145C C169G U176A,0.0262
8,C82G A120C A145C C150U C169U,0.0122
9,C82G A120C A145C C150U C169A,0.008
10,C82G A120C A145C C150U C169G,0.00749
11,C82G A120C A145C C150U C169U U176C,0.00971
12,C82G A120C A145C C150U C169U U176G,0.00439
13,C82G A120C A145C C150U C169U U176A,0.0146
14,C82G A120C A145G C150A U176G,0.0102
15,C82G A120C A145G C150A U176C,0.034
16,C82G A120C A145G C150A U176A,0.0196
17,C82G A111U C150A C169A U176A,0.0193
18,C82G A111U C150A C169A U176G,0.00814
19,C82G A111U C150A C169A U176C,0.0206
20,C82G A120C A145C C150A U176G,0.0054
21,C82G A120C A145C C150A U176A,0.012
22,C82G A120C A145C C150A U176C,0.0118
23,C82G A111U C150G C169U,0.0102
24,C82G A111U C150G C169G,0.00744

row,Variant,reverse-splicing fitness
1,C82G A111U C150G C169A,0.0104
2,C82G A120C A145G C150G C169A,0.0104
3,C82G A120C A145G C150G C169G,0.00813
4,C82G A120C A145G C150G C169U,0.0121
5,C82G A120C A145G C150G C169G U176G,0.00667
6,C82G A120C A145G C150G C169G U176C,0.0134
7,C82G A120C A145G C150G C169G U176A,0.0134
8,C82G A111U C150A U176G,0.0138
9,C82G A111U C150A U176C,0.0357
10,C82G A111U C150A U176A,0.025
11,C82G A111U A145U C169U U176G,0.00509
12,C82G A111U A145U C169U U176A,0.0146
13,C82G A111U A145U C169U U176C,0.0128
14,C82G A120C A145C C150U U176C,0.0273
15,C82G A120C A145C C150U U176A,0.0221
16,C82G A120C A145C C150U U176G,0.00925
17,C82G A120C A145C C169A U176G,0.00378
18,C82G A120C A145C C169A U176C,0.0062
19,C82G A120C A145C C169A U176A,0.0137
20,C82G A111U C150A C169U U176C,0.0161
21,C82G A111U C150A C169U U176A,0.0148
22,C82G A111U C150A C169U U176G,0.00776
23,C82G A120C A145C C150G C169U U176C,0.0116
24,C82G A120C A145C C150G C169U U176A,0.00765

row,Variant,reverse-splicing fitness
1,C82G A120C A145C C150G C169U U176G,0.00406
2,C82G A120C A145C U176C,0.0842
3,C82G A120C A145C U176A,0.0678
4,C82G A120C A145C U176G,0.0157
5,C82G A120C A145C C150A C169G U176G,0.0056
6,C82G A120C A145C C150A C169G U176C,0.0164
7,C82G A120C A145C C150A C169G U176A,0.0302
8,C82G A111U A145U U176C,0.246
9,C82G A111U A145U U176G,0.0842
10,C82G A111U A145U U176A,0.211
11,C82G A111U C150U C169U,0.0118
12,C82G A111U C150U C169A,0.0106
13,C82G A111U C150U C169G,0.00914
14,C82G A111U U176G,0.0695
15,C82G A111U U176C,0.259
16,C82G A111U U176A,0.214
17,C82G A111U C169U U176A,0.0177
18,C82G A111U C169U U176C,0.0158
19,C82G A111U C169U U176G,0.00639
20,C82G A120C A145G C150A C169A U176C,0.0236
21,C82G A120C A145G C150A C169A U176A,0.0227
22,C82G A120C A145G C150A C169A U176G,0.00671
23,C82G A120C A145C C150G C169U,0.0101
24,C82G A120C A145C C150G C169A,0.00926

row,Variant,reverse-splicing fitness
1,C82G A120C A145C C150G C169G,0.00712
2,C82G A111U C150G C169U U176G,0.00728
3,C82G A111U C150G C169U U176C,0.0129
4,C82G A111U C150G C169U U176A,0.00863
5,C82G A111U C150G C169A U176A,0.011
6,C82G A111U C150G C169A U176C,0.0132
7,C82G A111U C150G C169A U176G,0.00732
8,C82G A111U C150G U176C,0.0207
9,C82G A111U C150G U176G,0.0043
10,C82G A111U C150G U176A,0.01
11,C82G A120C A145C C150G U176C,0.0144
12,C82G A120C A145C C150G U176A,0.00907
13,C82G A120C A145C C150G U176G,0.00422
14,C82G A120C A145G,0.21
15,C82G A120C A145C,0.201
16,C82G A120C A145C C169G,0.00864
17,C82G A120C A145C C169A,0.00704
18,C82G A120C A145C C169U,0.0218
19,C82G A120C A145C C150A C169A U176A,0.0154
20,C82G A120C A145C C150A C169A U176G,0.00522
21,C82G A120C A145C C150A C169A U176C,0.00645
22,C82G A111U C150U C169A U176A,0.0188
23,C82G A111U C150U C169A U176G,0.00647
24,C82G A111U C150U C169A U176C,0.0148

row,Variant,reverse-splicing fitness
1,C82G A120C A145C C150G C169G U176G,0.00536
2,C82G A120C A145C C150G C169G U176C,0.00954
3,C82G A120C A145C C150G C169G U176A,0.0101
4,C82G A120C A145C C150U C169G U176A,0.0259
5,C82G A120C A145C C150U C169G U176G,0.00532
6,C82G A120C A145C C150U C169G U176C,0.013
7,C82G A120C A145C C169U U176C,0.0142
8,C82G A120C A145C C169U U176G,0.00352
9,C82G A120C A145C C169U U176A,0.0152
10,C82G A111U C150A C169G,0.00899
11,C82G A111U C150A C169A,0.0114
12,C82G A111U C150A C169U,0.0113
13,C82G A120C A145C C150G,0.0227
14,C82G A120C A145C C150U,0.0403
15,C82G A120C A145C C150A,0.0129
16,C82G A120C A145C C150A C169U U176A,0.0134
17,C82G A120C A145C C150A C169U U176C,0.0101
18,C82G A120C A145C C150A C169U U176G,0.0044
19,C82G A120C,0.208
20,C82G A111U C169G U176G,0.00614
21,C82G A111U C169G U176A,0.0157
22,C82G A111U C169G U176C,0.0227
23,C82G A111U C150U C169G U176G,0.00689
24,C82G A111U C150U C169G U176C,0.0169

row,Variant,reverse-splicing fitness
1,C82G A111U C150U C169G U176A,0.0149
2,C82G A111U C150G C169G U176A,0.0074
3,C82G A111U C150G C169G U176C,0.00587
4,C82G A111U C150G C169G U176G,0.00662
5,C82G A120C A145G C150G C169U U176A,0.0128
6,C82G A120C A145G C150G C169U U176C,0.0134
7,C82G A111U A145U C169G U176G,0.00618
8,C82G A111U A145U C169G U176A,0.0122
9,C82G A111U A145U C169G U176C,0.0128
10,C82G A120C A145C C150U C169A U176G,0.00525
11,C82G A120C A145C C150U C169A U176A,0.0117
12,C82G A120C A145C C150U C169A U176C,0.00587
13,C82G A120C A145G C150A C169G,0.00895
14,C82G A120C A145G C150A C169U,0.0126
15,C82G A120C A145G C150A C169A,0.0104
16,C82G A111U C150A C169G U176C,0.0229
17,C82G A111U C150A C169G U176A,0.021
18,C82G A111U C150A C169G U176G,0.0075
19,C82G A120C A145G C150A,0.0297
20,C82G A120C A145G C150G,0.0242
21,C82G A111U C150U,0.192
22,C82G A111U C150G,0.0227
23,C82G A111U C150A,0.0323
